In this test the target is ancGR2-LBD (ligand-binding domain of the ancestral glucocorticoid receptor 2), Dex-bound. Nature of the test: SPR. A general note: In SPR one partner is held on a chip, and binding of the other changes the refractive index at the surface.

The text below walks through data of publication PMC13281853.

Broadly, the Kd is a measure of binding affinity in units of concentration.

“ancGR2-LBD (ligand-binding domain of the ancestral glucocorticoid receptor 2), Dex-bound (domain or fragment)”: the Kd worked out at 17.4 µM.
